{"source": "paper PMC3276697", "about": "(Traffic (Copenhagen, Denmark), 2012)", "binders": {"B1": {"name": "GST-Did2(CT) (amino acids 113-204), the C-terminal half of Did2 (domain or fragment, S. cerevisiae, UniProt P69771 113-204, looked up)", "chain": "QQITMIMDKFEQQFEDLDTSVNVYEDMGVNSDAMLVDNDKVDELMSKVADENGMELKQSAKLDNVPEIKAKEVNVDDEKEDKLAQRLRALRG"}}, "biological_target": "T1, Vps4(E233Q), the ATP-locked form of Vps4 (S. cerevisiae, UniProt P52917 1-437, E233Q)", "T1 sequence (looked up)": "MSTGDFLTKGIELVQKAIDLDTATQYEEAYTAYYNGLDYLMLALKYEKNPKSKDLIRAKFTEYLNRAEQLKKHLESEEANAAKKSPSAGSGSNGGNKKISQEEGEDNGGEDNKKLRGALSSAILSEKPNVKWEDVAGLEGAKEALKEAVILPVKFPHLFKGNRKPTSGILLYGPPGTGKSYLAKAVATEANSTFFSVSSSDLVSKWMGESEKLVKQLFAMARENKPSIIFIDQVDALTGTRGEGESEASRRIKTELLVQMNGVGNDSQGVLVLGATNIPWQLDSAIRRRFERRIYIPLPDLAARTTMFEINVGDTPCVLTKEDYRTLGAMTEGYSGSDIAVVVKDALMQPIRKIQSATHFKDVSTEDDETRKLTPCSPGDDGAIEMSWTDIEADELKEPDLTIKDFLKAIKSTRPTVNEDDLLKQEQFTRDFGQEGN", "experiment": "pull-down"}
{"binder": "B1", "values": [{"measurement": "binding result", "result": "binds"}]}
